In patent publication US7025971:

Legend:
[1] = target: PapD (wild type) (E. coli) (UniProt P15319); test: soluble inhibition ELISA: 25-fold molar excess of peptide, 100 pmol/well PapD, G1′-19′WT-coated wells
[2] = target: PapD (wild type) (E. coli) (UniProt P15319); test: cell-based or functional assay

PapD (wild type) (E. coli), sequence (P15319 22-239 limits assumed): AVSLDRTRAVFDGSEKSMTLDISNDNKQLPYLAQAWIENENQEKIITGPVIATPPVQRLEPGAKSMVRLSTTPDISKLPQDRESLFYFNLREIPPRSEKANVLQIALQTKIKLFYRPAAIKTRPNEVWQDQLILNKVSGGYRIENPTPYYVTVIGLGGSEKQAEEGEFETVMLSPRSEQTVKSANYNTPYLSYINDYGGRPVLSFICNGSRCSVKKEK

Substance: G2′-21′amide (peptide)
- % Inhibition [1]: 0%

Substance: MBP/G1′-81′ (from UniProt P0AEX9 27-392)
- HA titer [2]: 82
- Piliation percentage [2]: 40%

Substance: MBP/G1′-140′ (from UniProt P0AEX9 27-392)
- HA titer [2]: 4
- Piliation percentage [2]: 10%
- decrease of HA titer [2]: 30 fold
